For experiment [1], the target named is HA of A/swine/Netherlands/1/87 (H1N1) (influenza A virus A/swine/Netherlands/1/87 (H1N1)).
In experiment [2] the target is HA of the 2009 pandemic H1N1 strains, California/4/09 and Netherlands/602/09.
Experiment [3] deals with HA of human-derived H3N2 strains.
Experiment [4] has as its target HA of all influenza A/H1N1 viruses tested with RpSP-D multimers and trimers.

Turning to “RpSP-D trimers (from UniProt Q9N1X4 21-378) (natural protein)”, the HI assay: minimal inhibitory concentration of RpSP-D trimers; not inhibited in experiment [1] was over 1600 ng/100 µl.

B1: recombinant human SP-D, P35247 21-375 (natural protein)
chain: AEMKTYSHRTMPSACTLVMCSSVESGLPGRDGRDGREGPRGEKGDPGLPGAAGQAGMPGQAGPVGPKGDNGSVGEPGPKGDTGPSGPPGPPGVPGPAGREGPLGKQGNIGPQGKPGPKGEAGPKGEVGAPGMQGSAGARGLAGPKGERGVPGERGVPGNTGAAGSAGAMGPQGSPGARGPPGLKGDKGIPGDKGAKGESGLPDVASLRQQVEALQGQVQHLQAAFSQYKKVELFPNGQSVGEKIFKTAGFVKPFTEAQLLCTQAGGQLASPRSAAENAALQQLVVAKNEAAFLSMTDSKTEGKFTYPTGESLVYSNWAPGEPNDDGGSEDCVEIFTNGKWNDRACGEKRLVVCEF
In the experiment with HA of most H1N1 viruses, B1 had an HI assay: minimal inhibitory concentration of RhSP-D; failed to inhibit of over 7500 ng/100 µl.

B2: recombinant porcine SP-D, Q9N1X4 21-378 (natural protein)
chain: AEMKTYSQRAVANACALVMCSPMENGLPGRDGRDGREGPRGEKGDPGLPGAVGRAGMPGLAGPVGPKGDNGSTGEPGAKGDIGPCGPPGPPGIPGPAGKEGPSGQQGNIGPPGTPGPKGETGPKGEVGALGMQGSTGARGPAGLKGERGAPGERGAPGSAGAAGPAGATGPQGPSGARGPPGLKGDRGPPGERGAKGESGLPGITALRQQVETLQGQVQRLQKAFSQYKKVELFPNGRGVGEKIFKTGGFEKTFQDAQQVCTQAGGQMASPRSETENEALSQLVTAQNKAAFLSMTDIKTEGNFTYPTGEPLVYANWAPGEPNNNGGSSGAENCVEIFPNGKWNDKACGELRLVICEF
Regarding B2, the HI assay: average inhibitory concentration of RpSP-D in experiment [2] was found to be 304 ng/100 µl. Further, the HI assay: minimal inhibitory concentration of RpSP-D was 51 ng/100 µl in the experiment with HA of swine H3N2 viruses, 14.6 ng/100 µl with HA of avian H3N2 viruses and 11 ng/100 µl in experiment [3].

B3: RpSP-D trimers (natural protein)
chain: AEMKTYSQRAVANACALVMCSPMENGLPGRDGRDGREGPRGEKGDPGLPGAVGRAGMPGLAGPVGPKGDNGSTGEPGAKGDIGPCGPPGPPGIPGPAGKEGPSGQQGNIGPPGTPGPKGETGPKGEVGALGMQGSTGARGPAGLKGERGAPGERGAPGSAGAAGPAGATGPQGPSGARGPPGLKGDRGPPGERGAKGESGLPGITALRQQVETLQGQVQRLQKAFSQYKKVELFPNGRGVGEKIFKTGGFEKTFQDAQQVCTQAGGQMASPRSETENEALSQLVTAQNKAAFLSMTDIKTEGNFTYPTGEPLVYANWAPGEPNNNGGSSGAENCVEIFPNGKWNDKACGELRLVICEF
As to B3, in experiment [4], the HI assay: average minimal inhibitory concentration of RpSP-D trimers turned out to be 602 ng/100 µl.

B4: RpSP-D multimers (natural protein)
chain: AEMKTYSQRAVANACALVMCSPMENGLPGRDGRDGREGPRGEKGDPGLPGAVGRAGMPGLAGPVGPKGDNGSTGEPGAKGDIGPCGPPGPPGIPGPAGKEGPSGQQGNIGPPGTPGPKGETGPKGEVGALGMQGSTGARGPAGLKGERGAPGERGAPGSAGAAGPAGATGPQGPSGARGPPGLKGDRGPPGERGAKGESGLPGITALRQQVETLQGQVQRLQKAFSQYKKVELFPNGRGVGEKIFKTGGFEKTFQDAQQVCTQAGGQMASPRSETENEALSQLVTAQNKAAFLSMTDIKTEGNFTYPTGEPLVYANWAPGEPNNNGGSSGAENCVEIFPNGKWNDKACGELRLVICEF
As to B4, the HI assay: average minimal inhibitory concentration of RpSP-D multimers in experiment [4] stood at 39.8 ng/100 µl.

These data come from paper PMC3173486.
